# Measurements from IntAct's records for PubMed 17699754.
# B1: DnaA initiator-associating protein DiaA (Escherichia coli (strain K12)), P66817 (parent)
# chain: MQERIKACFTESIQTQIAAAEALPDAISRAAMTLVQSLLNGNKILCCGNGTSAANAQHFAASMINRFETERPSLPAIALNTDNVVLTAIANDRLHDEVYAKQVRALGHAGDVLLAISTRGNSRDIVKAVEAAVTRDMTIVALTGYDGGELAGLLGPQDVEIRIPSHRSARIQEMHMLTVNCLCDLIDNTLFPHQDD
# partner: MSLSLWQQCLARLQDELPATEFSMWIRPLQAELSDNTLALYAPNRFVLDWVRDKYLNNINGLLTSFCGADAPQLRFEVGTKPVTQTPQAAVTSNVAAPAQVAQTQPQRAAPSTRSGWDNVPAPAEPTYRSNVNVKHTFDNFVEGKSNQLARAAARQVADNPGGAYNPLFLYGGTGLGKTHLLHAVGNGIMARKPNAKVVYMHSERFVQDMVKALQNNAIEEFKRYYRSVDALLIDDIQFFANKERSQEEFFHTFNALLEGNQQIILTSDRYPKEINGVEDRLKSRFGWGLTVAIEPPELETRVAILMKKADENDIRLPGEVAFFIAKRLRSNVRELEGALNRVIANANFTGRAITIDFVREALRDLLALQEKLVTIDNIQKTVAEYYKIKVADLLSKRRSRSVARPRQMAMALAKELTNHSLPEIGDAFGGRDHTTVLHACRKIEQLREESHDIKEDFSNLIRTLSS
# Variants of: B1
# Settings: with dnaa_ecoli dnaA
row,Variant,effect of a mutation on the interaction
1,P72A,decreasing interaction
2,P72S,decreasing interaction
3,K101E,decreasing interaction
4,N83D,decreasing interaction
5,L190P,disrupting interaction
6,F191L,disrupting interaction
7,F191S,disrupting interaction
8,L190A,disrupting interaction

# Variants of: B1
# Settings: with dnaa_ecoli dnaA
# Remark: another data set of the same source
row,Variant,effect of a mutation on the interaction
1,S52F,decreasing interaction
